# Measured values published in patent US9308238B2, “Compositions and methods for modulating EMT and uses thereof” (Whitehead Institute for Biomedical Research, priority 2010, dated 2016).
# B1: SFRP1: Recombinant human SFRP1 protein (R&D Systems), secreted decoy receptor binding canonical and non-canonical Wnt ligands (protein, UniProt Q8N474 32-314, looked up)
# Secreted frizzled-related …: SEYDYVSFQSDIGPYQSGRFYTKPPQCVDIPADLRLCHNVGYKKMVLPNLLEHETMAEVKQQASSWVPLLNKNCHAGTQVFLCSLFAPVCLDRPIYPCRWLCEAVRDSCEPVMQFFGFYWPEMLKCDKFPEGDVCIAMTPPNATEASKPQGTTVCPPCDNELKSEAIIEHLCASEFALRMKIKEVKKENGDKKIVPKKKKPLKLGPIKKKDLKKLVLYLKNGADCPCHQLDNLSHHFLIMGRKVKSQYLLTAIHKWDKKNKEFKNFMKKMKNHECPTFQSVFK
# B2: BMP4: Recombinant BMP4 protein obtained from Stemgent (protein, UniProt P12644 293-408, looked up)
# Bone morphogenetic protein 4: SPKHHSQRARKKNKNCRRHSLYVDFSDVGWNDWIVAPPGYQAFYCHGDCPFPLADHLNSTNHAIVQTLVNSVNSSIPKACCVPTELSAISMLYLDEYDKVVLKNYQEMVVEGCGCR
# Key:
# Assay type in all cases: cell-based, human
# HMLE^24+ cells = assay: Boyden chamber migration assay, HMLE^24+ cells
# Description: (§1) FIGS. 3A-3E. Autocrine Signaling controls migration and mammosphere formation.
# FIGS. 5A-5H. Concomitant stimulation of Wnt and TGF-beta pathways allows HMLE^24+ cells to enter into a mesenchymal and SC-like state. (FIG. 5A) RT-PCR: N-Cadherin, Zeb1 and Zeb2, L32 was loading control, n=3. Prior RNA isolation, HMLE^24+-shGFP or -shSFRP1 (stable knockdown of SFRP1, FIG. 12A) cells were treated for 3 days with daily doses of indicated factors: anti-DKK1 antibody (10 μg/ml), anti-E-Cadherin antibody (1 μg/ml), TGF-beta 1 (5 ng/ml), Wnt5a (250 ng/ml), (FIG. 5B) Brightfield microscopy: images of control, TGF-beta- and iEMT-cocktail treated HMLE^24+ cells after 14 days of treatment as indicated (see also FIG. 12D). (FIG. 5C) RT-PCR: Zeb1, Zeb2, E-Cadherin and N-Cadherin, L32 was loading control, n=3. After 14 day treatment, cells were expanded in absence of further stimulation for 4 passages. Shown are PBS-treated control HMLE^24+-shGFP and HMLE^24+-shSFRP1 cells, two HMLE^24+-shGFP cultures treated with TGF-beta 1 (TGF-β-a and -b), two HMLE^24+-shSFRP1 cultures treated with the iEMT-cocktail (iEMT-a and -b). (FIG. 5D) Immunoblot: EMT markers and associated autocrine pathways, cells generated as described in (C). (FIG. 5E) Migration (Boyden Chamber Assay) and Mammosphere Assay: cells generated as indicated in (C), *control vs. TGF-beta treatment, p<1×10^−4, **control vs. iEMT-treatment, p<1×10^−9, n(migration)=3, n(mammospheres)/1000 cells, n=7. (FIG. 5F) Flow cytometry: CD44 and CD24 cell-surface marker expression in control, TGF-beta-a and iEMT-a cells generated as described in (C). (FIG. 5G) Lung metastasis: cells expanded for 8 passages after cessation of treatment as described in (C) were transformed with RAS; 1.0×10^5 cells were injected into the mammary fat pads of mice; GFP-labeled metastases on the surface of the lungs were quantified; *control vs. all other groups, p<0.05, n=5 mice/group. […]
# MSP-RAS cells = assay: Tumorsphere assay, MSP-RAS cells; conditions: for reduction of primary tumorsphere formation: SFRP1 1 μg/ml, BMP4 0.5 μg/ml daily during primary sphere formation; for reduction of secondary tumorsphere formation: treated during primary sphere formation only
# Description: FIGS. 4A-4G. Autocrine Signaling controls tumorigenicity and metastasis of MSP-RAS cells. (FIG. 4A) Migration assay: RAS-transformed MSP (MSP-RAS) were seeded in Boyden Chamber migration assays and recombinant SFRP1 (1 μg/ml) and BMP4 protein (0.5 μg/ml) were added; *control vs. single treatment, p<1×10^−8, **single vs. double treatment with SFRP1 and BMP4 (S+B), p<1×10^−4, n=3. (FIG. 4B) Tumorsphere assay: SFRP1 (1 μg/ml) and BMP4 protein (0.5 μg/ml) were added daily during primary sphere formation (5 days), spheres were dispersed and seeded for secondary sphere formation in the absence of further treatment; #control primary vs. secondary sphere formation, p=0.001; *control vs. single treatment, p<1×10^−4, **single vs. double treatment with SFRP1 and BMP4 (S+B), p<0.01, n(tumorspheres)/1000 cells, n=6. (FIG. 4C) Flow cytometry: CD44 and CD24 cell-surface markers of dissociated primary tumorspheres as described in (B). (FIG. 4D) Orthotopic tumor formation after ex vivo treatment during tumorsphere formation: primary tumorspheres as generated in (B) were pooled, dissociated and 1.0×10^5 cells were implanted in the fat pads of mice; shown are tumor weight and incidence, *indicates absence of tumor, n=5 mice/group. (FIG. 4E) Lung metastasis: fluorescence microscopy images of the major left lung lobe showing GFP-expressing metastatic nodules and quantification of the number of lung surface metastases; *control vs. SFRP1 treatment, p<0.05, **SFRP1 vs. BMP4 or double treatment (S+B), p<0.05, n=5 mice/group. (FIG. 4F) Liver metastasis: fluorescence microscopy images of the liver surface showing GFP-expressing micro-metastatic nodules after implantation of cells as described in (D) and quantification: 5 fields of liver surface were counted per mouse, *control vs. single treatment, p<0.05, **single vs. double treatment (S+B), p<0.05, n=5 mice/group. (FIG. 4G) Tumorigenicity assay: MSP-RAS cells suspended in PBS containing SFRP1 (1 μg/ml), BMP4 (0.5 μg/ml), and a combination of both (S+B) were implanted subcutaneously in mice at indicated cell numbers. In addition, 20 μl of PBS or PBS with proteins at indicated doses was injected peri-tumorally at 1, 2, 3 and 7 days after implanting the MSP-RAS cells.
# Mammosphere and tumorsphere assay. Assays were performed as previously described with modifications (Dontu et al., 2003): 1000 cells/well were seeded in 96-well ultra-low adhesion plates (Corning) in MEGM medium containing 1.3% methylcellulose (Stem Cell Technologies) supplemented with 20 ng/ml EGF, 10 ng/ml bFGF (both Sigma) and B27 (Gibco). Primary spheres were dissociated by trypsinization and replated for secondary sphere formation after a period of 5-7 days.
# HTwist and MSP cells = assay: Boyden chamber migration assay, HTwist and MSP cells
# Description: as §1
# FIGS. 10A-10E. […] (FIG. 10C) Mammosphere assay: HTwist cells were treated daily during mammosphere formation (5 days) with proteins as described in (B); *control vs. single treatment, p<1×10^−5, **single vs. double-treatment, p<0.01, n(mammospheres)/1000 cells, n=6, (FIG. 10D) Migration Assay: HTwist and MSP cells were seeded into Boyden Chambers in the presence of TGF-beta Receptor I inhibitors A83-01 and SB431542 (SB43, both at 10 μM). (FIG. 10E) Mammosphere Assay: HTwist and MSP were treated daily during mammosphere formation (5 days) with BMP4 (0.5 μg/ml), SB431542 (10 μM) or a combination of both, n(mammospheres)/1000 cells, n=6.
# Migration and invasion assays. For migration assays, 2×10^4 cells were seeded into 24-well cell culture inserts with 8-μm pores (Boyden Chambers, BD Falcon). For invasion assays, matrigel-coated inserts (BD Falcon) were used. After 12-48 hr, the cells on the upper surface of the filters were removed with a cotton swab. For visualization, cells on lower filter surfaces were fixed and stained with a Diff-Quick staining kit (Dade Behring).
Molecule,increase in ability to migrate vs untreated control cells (HMLE^24+ cells; after 14 day treatment),motility of HMLE^24+ cells upon addition of protein (HMLE^24+ cells; 0.5 μg/ml in growth medium),reduction of primary tumorsphere formation (MSP-RAS cells),reduction of secondary tumorsphere formation (MSP-RAS cells),reduction of migration (HTwist and MSP cells; at the highest concentration),maximum reduction of migration (HTwist and MSP cells; HTwist or MSP cells)
"TGF-beta 1: recombinant TGF-beta 1 protein, used at 5 ng/ml",not in motility,–,–,–,–,–
B1,–,not further reduced,40%,40%,20 fold,–
B2,–,–,40%,40%,–,≤ 2 fold
